Measured values taken from PMC6423188, “HYNIC and DOMA conjugated radiolabeled bombesin analogs as receptor-targeted probes for scintigraphic detection of breast tumor” (EJNMMI Research, 2019).
Read-outs that look alike come from different tables or passages of the source. Where a SMILES comes first, the peptide text is derived from it.

Experiments:
[1] = in vitro; type: in vitro ADME; details: rat, serum
Protocol: In vitro radiochemical stability of ^99mTc-BN1/^99mTc-BN2/^99mTc-BN3 and ^99mTc-BN4, ^99mTc-BNS were assessed by incubating HPLC purified radiopeptides in phosphate buffer saline (PBS at pH 7.4) and freshly collected rat serum for 1–24 h at […]. Then, 90 μL of radiolabeled peptide ^99mTc-BN1/^99mTc-BN2/^99mTc-BN3/^99mTc-BN4/^99mTc-BNS solution were incubated under agitation at 37 °C with either 1.0 mL saline or fresh rat serum, and the mixtures were incubated at 37 °C for 24 h. Samples were periodically withdrawn from the mixture at 0, 2, 4, 6, 8, 12, and 24 h incubation period and analyzed by ITLC. In the case of rat serum, the aliquot was added to 100 μL 50% trifluoroacetic acid (TFA). After centrifugation (3000 rpm), the supernatant was analyzed by ITLC using acetone as the developing solvent; 10 μL of this mixture was taken at each time point, added to a strip ITLC whereby the percentage of ^99mTc-BN1/^99mTc-BN2/^99mTc-BN3/^99mTc-BN4/^99mTc-BNS was determined using gamma counter.
In vitro stability of ^99mTc-labeled bombesin analogs incubated at 37 °C with either freshly collected rat serum or normal saline were monitored up to 24 h. […] The new radiolabeled peptide conjugates were stable up to 24 h post labeling period at room temperature, with no observable degradation or transchelation to serum proteins.

[2] = tested on: MDA-MB-231 tumor-bearing mice; experiment: In vivo biodistribution; parameters: species or system mouse; details: BALB/c, mouse, in vivo, iv
How it was run: (§1)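 BALB/c mice immunosuppressed with cyclosporine-A (30 mg/kg/day i.p.) bore subcutaneous MDA-MB-231 tumours (~0.5 cm); ^99mTc-bombesin analogs given i.v. via tail vein, three mice per group. Organs excised at 5, 30, 60 and 120 min and gamma-counted as decay-corrected %IA/g; blocking used 0.03 nmol tracer (2 MBq) plus 25 nmol unlabelled BN peptide, read at 60 and 120 min.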

[3] = In vivo biodistribution; parameters: species or system mouse; details: BALB/c, mouse, in vivo, total radioactivity
How it was run: as §1

Structure (SMILES): CCCC[C@H](NC(=O)[C@@H](Cc1ccc(O)cc1)NC(=O)[C@H](Cc1c[nH]cn1)NC(=O)[C@H]1CCCN1C(=O)[C@@H](NC(=O)[C@H](C)NC(=O)[C@H](Cc1c[nH]c2ccccc12)NC(=O)[C@H](CCC(N)=O)NC(=O)CCCNC(=O)CN1CCNCCNCCNCC1)C(C)C)C(N)=O [99mTc-BN4, ^99mTc-DOMA-GABA-[Pro^11Tyr^13Nle^14]-BN(7-14)NH2, metal not drawn] (HELM PEPTIDE1{[O=C(CN1CCNCCNCCNCC1)[*:2]].[O=C(CCCN[*:1])[*:2]].Q.W.A.V.[dP].H.[dY].[Nle].[am]}$$$$V2.0)
- remaining at 4 h [1]: 97.6 ± 0.05%
- remaining at 6 h [1]: 97 ± 0.18%
- remaining at 8 h [1]: 96.4 ± 0.2%
- remaining at 12 h [1]: 95.2 ± 0.05%
- remaining at 24 h [1]: 93.3 ± 0.02%
- Liver uptake ([2]; 0.5 h): 0.52 ± 0.13 %IA/g
- Stomach uptake ([2]; 0.5 h): 0.91 ± 0.04 %IA/g
- Pancreas uptake ([2]; 1 h): 1.98 ± 0.02 %IA/g
- Stomach uptake ([2]; 2 h): 0.20 ± 0.01 %IA/g
- tissue uptake at 5 min ([3]; iv, Blood uptake): 0.42 ± 0.01 %ID/g
- tissue uptake at 0.5 h ([3]; iv, Blood uptake): 0.81 ± 0.01 %ID/g
- tissue uptake at 1 h ([3]; iv, Blood uptake): 0.42 ± 0.03 %ID/g
- tissue uptake at 2 h ([3]; iv, Blood uptake): 0.17 %ID/g
- tissue uptake at 5 min ([3]; iv, Heart uptake): 0.73 ± 0.03 %ID/g
- tissue uptake at 0.5 h ([3]; iv, Heart uptake): 0.67 ± 0.02 %ID/g
- tissue uptake at 1 h ([3]; iv, Heart uptake): 0.25 ± 0.02 %ID/g
- tissue uptake at 2 h ([3]; iv, Heart uptake): 0.09 ± 0.04 %ID/g
- tissue uptake at 5 min ([3]; iv, Intestine uptake): 1.01 ± 0.06 %ID/g
- tissue uptake at 0.5 h ([3]; iv, Intestine uptake): 1.6 ± 0.05 %ID/g
- tissue uptake at 1 h ([3]; iv, Intestine uptake): 2.15 ± 0.21 %ID/g
- tissue uptake at 2 h ([3]; iv, Intestine uptake): 0.82 ± 0.05 %ID/g
- tissue uptake at 5 min ([3]; iv, Kidney uptake): 2.17 ± 0.11 %ID/g
- tissue uptake at 0.5 h ([3]; iv, Kidney uptake): 3.95 ± 0.21 %ID/g
- tissue uptake at 1 h ([3]; iv, Kidney uptake): 3.1 ± 0.17 %ID/g
- tissue uptake at 2 h ([3]; iv, Kidney uptake): 2.1 ± 0.13 %ID/g
- tissue uptake at 5 min ([3]; iv, Liver uptake): 0.4 ± 0.03 %ID/g
- tissue uptake at 0.5 h ([3]; iv, Liver uptake): 0.32 ± 0.13 %ID/g
- tissue uptake at 1 h ([3]; iv, Liver uptake): 0.28 ± 0.12 %ID/g
- tissue uptake at 2 h ([3]; iv, Liver uptake): 0.17 ± 0.03 %ID/g
- tissue uptake at 5 min ([3]; iv, Lung uptake): 1.07 ± 0.14 %ID/g
- tissue uptake at 0.5 h ([3]; iv, Lung uptake): 0.82 ± 0.03 %ID/g
- tissue uptake at 1 h ([3]; iv, Lung uptake): 0.7 ± 0.02 %ID/g
- tissue uptake at 2 h ([3]; iv, Lung uptake): 0.25 ± 0.11 %ID/g
- tissue uptake at 5 min ([3]; iv, Muscle uptake): 0.26 ± 0.02 %ID/g
- tissue uptake at 0.5 h ([3]; iv, Muscle uptake): 0.32 ± 0.04 %ID/g
- tissue uptake at 1 h ([3]; iv, Muscle uptake): 0.25 ± 0.02 %ID/g
- tissue uptake at 2 h ([3]; iv, Muscle uptake): 0.1 ± 0.01 %ID/g
- tissue uptake at 5 min ([3]; iv, Pancreas uptake): 2.88 ± 0.11 %ID/g
- tissue uptake at 0.5 h ([3]; iv, Pancreas uptake): 4.49 ± 0.03 %ID/g
- tissue uptake at 1 h ([3]; iv, Pancreas uptake): 3.75 ± 0.06 %ID/g
- tissue uptake at 2 h ([3]; iv, Pancreas uptake): 1.1 ± 0.04 %ID/g
- tissue uptake at 5 min ([3]; iv, Spleen uptake): 0.62 ± 0.04 %ID/g
- tissue uptake at 0.5 h ([3]; iv, Spleen uptake): 0.56 ± 0.01 %ID/g
- tissue uptake at 1 h ([3]; iv, Spleen uptake): 0.24 ± 0.01 %ID/g
- tissue uptake at 2 h ([3]; iv, Spleen uptake): 0.17 ± 0.02 %ID/g
- tissue uptake at 5 min ([3]; iv, Stomach uptake): 0.47 ± 0.02 %ID/g
- tissue uptake at 0.5 h ([3]; iv, Stomach uptake): 0.51 ± 0.04 %ID/g
- tissue uptake at 2 h ([3]; iv, Stomach uptake): 0.12 ± 0.01 %ID/g
- tissue uptake at 5 min ([3]; iv, Tumor uptake): 1.3 ± 0.01 %ID/g
- tissue uptake at 0.5 h ([3]; iv, Tumor uptake): 3.32 ± 0.01 %ID/g
- tissue uptake at 1 h ([3]; iv, Tumor uptake): 2.85 ± 0.02 %ID/g
- tissue uptake at 2 h ([3]; iv, Tumor uptake): 1.31 ± 0.03 %ID/g
- tissue to tissue ratio at 5 min ([3]; iv, tumor/blood ratio): 3
- tissue to tissue ratio at 0.5 h ([3]; iv, tumor/blood ratio): 4.09
- tissue to tissue ratio at 1 h ([3]; iv, tumor/blood ratio): 6.78
- tissue to tissue ratio at 2 h ([3]; iv, tumor/blood ratio): 7.7
- tissue to tissue ratio at 5 min ([3]; iv, tumor/kidney ratio): 0.59
- tissue to tissue ratio at 0.5 h ([3]; iv, tumor/kidney ratio): 0.84
- tissue to tissue ratio at 1 h ([3]; iv, tumor/kidney ratio): 0.91
- tissue to tissue ratio at 2 h ([3]; iv, tumor/kidney ratio): 0.62
- tissue to tissue ratio at 5 min ([3]; iv, tumor/muscle ratio): 5
- tissue to tissue ratio at 0.5 h ([3]; iv, tumor/muscle ratio): 10.4
- tissue to tissue ratio at 1 h ([3]; iv, tumor/muscle ratio): 11.4
- tissue to tissue ratio at 2 h ([3]; iv, tumor/muscle ratio): 12.4
- tissue uptake at 1 h ([3]; 60 min p.i., blocked with excess non-radiolabeled BN peptide, MDA-MB-231 tumor, mean ± SD, n = 3, read-out: Tumor uptake): 0.66 ± 0.2 %ID/g
- tissue uptake at 1 h ([3]; 60 min p.i., blocked with excess non-radiolabeled BN peptide, mean ± SD, n = 3, read-out: Blood uptake): 0.29 ± 0.01 %ID/g
- tissue uptake at 1 h ([3]; 60 min p.i., blocked with excess non-radiolabeled BN peptide, mean ± SD, n = 3, read-out: Heart uptake): 0.27 ± 0.11 %ID/g
- tissue uptake at 1 h ([3]; 60 min p.i., blocked with excess non-radiolabeled BN peptide, mean ± SD, n = 3, read-out: Intestine uptake): 1.66 ± 0.23 %ID/g
- tissue uptake at 1 h ([3]; 60 min p.i., blocked with excess non-radiolabeled BN peptide, mean ± SD, n = 3, read-out: Kidney uptake): 3.18 ± 0.2 %ID/g
- tissue uptake at 1 h ([3]; Lung uptake): 0.78 ± 0.02 %ID/g
- tissue uptake at 1 h ([3]; Muscle uptake): 0.13 ± 0.1 %ID/g
- tissue uptake at 1 h ([3]; Spleen uptake): 0.26 ± 0.03 %ID/g
- tissue uptake at 1 h ([3]; Stomach uptake): 0.63 ± 0.1 %ID/g
